In the DeepSol protein solubility set:

Assay: soluble on expression in E. coli; label from the status in PepcDB or PDB records

| Sequence | soluble on expression in E. coli |
| --- | --- |
| MYSDKVFDHFQNPRNVGKIEDADGVGTVGNPVCGDLMTIYIKVKDNRIEDIKFQTFGCAAAIATSSMATEMAKGKTIEEALKITRDAVAEALGGLPKQKMHCSNLAADALRRAIVDYFRKNGKIDKIKELGLEKELEKMEKGEMDDHGEYCEA | not soluble |
| MGSDKIHHHHHHMKLQDFLGKDEKWSFDAIAEDADLARQIQIVLIGLVLLEPPADGKFGPVSVIALKKFQELTKTEESGFLGAVTAKKLIETKIDDLPKPPLKLGNDIASKIVKYMIAKGYQVFTNPKEYNIVYIEGMNGDWTLNSDTPNQFNDRRIVIEVVNGIPKIVDHWEATTEPGKYYTYNPMNPKGAARIQFGQYKAWAVGTHGTAEPHEALVQVGDITVCRDFNQDFKRTGDKLDTGDNFYVNQHYGFDFPQNDIRLASAGCLVGRTREGHREFMAIVKQDRRYVANRKYTFYTTVIPGDDLLKTFPG | not soluble |
| DALNRFHDQPLNETELLALMGEMEGKISGGIHYDNVAPCYLGGVQLMLEELGIISQEVPCFDEWYWVMAYPGIKVSTAEAREILPSQYRRQDIIAHGRHLAGFIHACHSGQPELAAKMIKDVIAEPYREKLLPGFANARQ | not soluble |
| MSLKFVTIRDIAREAGVSINTVSRALNDKPDINVETKKKVLEVADRLGYIRDATAVSLRYGLTRVIGVILEDSSNPFYSEVLKGIEMAAKKKKFNVIFMNTERSYELENEAIKTMIGRRVDGMIISPTQEKCDDIKLLSEKGIPFVVLGVHFDELNVPEIYTDDEKGGYLATKHLIEIGRRRILFLNGFTYKSVAKMRLNGYRKALKEFGLEYDKSLVHEIEEGYENAYNKVKELLKKGIKFDSIFCFNDVFAIGAIGALKEEGIKVPQDIAVVGYDDIYFSKFISPSLTTVKIDKILEGKLAFEMLHGILTKKTGKNVKNVLDVELIVRESTIDKIGEGHHHHHH | soluble |
| MSQSDLVTIKNLRFSRSQRVIFDDIDLHVPKGKVTAIMGPSGIGKTTLLRLIGGQLLPEQGEIWFDGENIPTLSRRKLYRARKKMSMLFQSGALFTDLNVFDNVAYPLREHTELDEAMIKTLVLLKLEAVGLRGAAYLMPSELSGGMARRAALARAIALDPELIMYDEPFVGQDPITMGVLVELIRNLNRALGVTSVVVSHDVPEVMSIADWVYLLADGKVIAQGSPQALRDNPDPRVQQFLCGDADGPVPFRFPAQPIEQELFSAK | not soluble |
| METQLSVQLGLDSLLTDFGLESVMNKQQQLFANMGLSDIGAPTPSTAIPVPNAHLHPSMVAGSDPSNPVVGFGFGSPSSTTSSSPPLSNSPTIEQQQHAQLTAMMQGIMSNNNVAVSNGSGVQVASVPAVHCSGCKSNETATSFCQDCNANLCDNCTMAHKFMHCFADHRVVSLTTPGTGSSSSSTSSSSSASSTSSHQVPSLGGKQSPDSMMLGSGKRSVLCLQHRASELVFFCVSCNLAICRDCTVSDHPSGTHQYELIADVADKQMLKMEQLIADARSKHADMLDMFKQVDNKQQVLTASLHNAHAQLEETVSNLINVIQDQKKTLAKDIDNAFAAKQIQLTMVDKRIQSMADKLSQTIEFSRRLMSFASPAEVMVFKQLLDTRLQLFLGFNPDTSGVLMTPCEIEYLGAAGLFNNSASTVSQLLGSVHGGSPINNAPAANDFLMPQAGLAPIGRAQSRIIPIEQNQLARSPPHHIAGSLPMNAYSDSNLLRPNKDFGGSSQSLGPFNPLGASVPGAAADPFSSQYDKWSLGVEPSVGGLLEGGNVDEEKFQTLFPPSRSQIKRQKMIYHCKFGEFGVMEGQFTEPSGVAVNGQGDIVVADTNNHRIQVFDKEGRFKFQFGECGKRDGQLLYPNRVAVNRTTGDFVVTERSPTHQIQVYNQYGQFLRKFGANILQHPRGVCVDSKGRIIVVECKVMRVIIFDMFGNILQKFSCSRYLEFPNGVCTNDKNEILISDNRAHCIKVFSYEGQYLRQIGGEGVTNYPIGVGINSLGEVVVADNHNNFNLTVFSQDGTMIGALESRVKHAQCFDVALVDDGSVVLASKDYRLYLYRFLPATSGQSTSSASSQI | not soluble |
| MENESKTINIELPEEIAQGNYCNLCIVMHSPSEFVLDFIRMVPNRDTARVQNRIILTPDNAKRLLTTLSDNIHRYEVEHGEIHTEQRVSDATFTFPTKIKGEA | soluble |
| MGSDKIHHHHHHESSFLNLSDPNYFTESNFWKDKADAESALAAAYSPIKGAMYGYFGAFDGWLNLNGRGDDIYTIKGEEVPMWNIANFLNSPSTGNDPYGALYSGIQRANIVLRYIDQIPASGITEEDRSMIKGEALFLRGYQYFLLVNNYKEVPLRLIPSNEDETNKAAATEAALWAQVEEDLDNAIKCNLPVERSTAKERITKGAAIAMLGKVYATQHKYPEAKQLLGTLLKAPYSYELMDNFEKNFTNEEEFNKESVFELAYSPDGDYSWSNESGICLGCYIPQFIGPVKSGGWAKLMPNSLIVGEFTKETRPSDADTKFDKRMYASLFFDAANYGDKVPNEKWYGNNYSMDDLWEGNEGKMAGGAPSFNVNGTAGKFLIKKNTAYYVDDKAPDNMGNKEGRSSNLRVMRFAEVLLLYAEACAKTNDPDGANYALKQIRQRAGLTEKTFAQAELMNEIEHQCLLEFFAEGHRFDDLKRWYSPSEIQLIFKANGKQGAENFQEKHLYYPIPTSELNNNTAMEQTSLWK | not soluble |
| MSYYHHHHHHDYDIPTTENLTFQGAMEPTSSLNRGDRKKGSSLVTGSEVQSQSNGASCFITTDSEKSLVSRQASQVEQIELRTYVFLDSLQPQLAAYMGTVSRGFLPIPGDSCLWMEVSPGMAVHRVTDIALKASNVRLGQMIVERAFGSLALYHKDQSTVLHSGDVVLDAIGSEVRKRTKPSTSWTEVICAITPDHAVLINRQNRSGSMIQSGMSMFILETEPAGYVLKAANEAEKSANITIIDVKAVGAFGRLTLAGKEGDVEEAAAAAIRAIDQISNY | soluble |
| MGSDKIHHHHHHMYGKTELMMSNACGLDFGTSNSTVGWTRPGHPAALLPLEDGKLTLPSVIFFHAEDPLVSYGRAALDDYLAGYEGRLMRSLKSLLGTSMMEDSTEVMGQAMPFRKLLAHFIGELKARAERSAGTTFTRAVLGRPVFFIDEDPAADRLAEQTLAEIARDAGFRDIEFQYEPIAAAFDYEAKISDEELVLVVDIGGGTSDFSLVRLSPERAKRIDRREDILANGGVHIGGTDFDRALSLARAMPLLGLGSKLRSGKEMPSSQYFDLASWHTINLVYTRKAWSIVMDNYRDAADTVKLDRLIRLIRERAGHWLAIQMEAAKIALSGVDRTDVDLHRIEPELMLSITRDEFDESIGKLVAKTEKTVTDMLASAGVDGASVDTILFTGGSSSVPMLRHQLGQLLPRARRVEGDLFGGIGSGLALDAARKFG | not soluble |
| EAIKWDKAPCRFCGTGCGVLVGTQQGRVVACQGDPDAPVNRGLNCIKGYFLPKIMYGKDRLTQPLLRMKNGKYDKEGEFTPITWDQAFDVMEEKFKTALKEKGPESIGMFGSGQWTIWEGYAASKLFKAGFRSNNIDPNARHCMASAVVGFMRTFGMDEPMGCYDDIEQADAFVLWGANMAEMHPILWSRITNRRLSNQNVTVAVLSTYQHRSFELADNGIIFTPQSDLVILNYIANYIIQNNAINQDFFSKHVNLRKGATDIGYGLRPTHPLEKAAKNPGSDASEPMSFEDYKAFVAEYTLEKTAEMTGVPKDQLEQLAQLYADPNKKVISYWTMGFNQHTRGVWANNLVYNLHLLTGKISQPGCGPFSLTGQPSACGTAREVGTFAHRLPADMVVTNEKHRDICEKKWNIPSGTIPAKIGLHAVAQDRALKDGKLNVYWTMCTNNMQAGPNINEERMPGWRDPRNFIIVSDPYPTVSALAADLILPTAMWVEKEGAYGNAERRTQFWRQQVQAPGEAKSDLWQLVQFSRRFKTEEVWPEDLLAKKPELRGKTLYEVLYATPEVSKFPVSELAEDQLNDESRELGFYLQKGLFEEYAWFGRGHGHDLAPFDDYHKARGLRWPVVNGKETQWRYSEGNDPYVKAGEGYKFYGKPDGKAVIFALPFEPAAEAPDEEYDLWLSTGRVLEHWHTGSMTRRVPELHRAFPEAVLFIHPLDAKARDLRRGDKVKVVSRRGEVISIVETRGRNRPPQGLVYMPFFDAAQLVNKLTLDATDPLSKETDFKKCAVKLEKV | soluble |
| MSLNENLQELIPTKLAAAIANPLFPAVDSQLRSGRHIGQEYLDNFAFLADFQNELDMFYRRYNVELIRAPEGFFYLRPKATTLIARSVLSELEMLVGKVLCYLYLSPERLAQQGIFSVQEVYDELLNLADESKLLKAVNQRSSGSDLDKQKLAEKVRAAVNRLRRLGMIHTVGEQNSGKFTISESVFRFGAEVRSGDDPREAQLRLIRDGEAATPDSLSQEKSAVKNDEEIEDELDEGLGEEEEGHHHHHH | soluble |
| MNKFIQSLPKVELHLHIEGTLEPELMLELAQRNSINIPFNSVEEIRDAYNFHNLQSFLDIYFQGADVLVHEQDFFDLTWAYLLRCQEDNVLHTEIFFDPQAHTERGILFDTVVNGIDRALNKGVSELGITSKLIMCFLRHLDEESAFKTLTQAQAHKDKIIGVGLDSTEIGNPANKFERVFKQAIEQGFLTVAHAGEEGPADNISEALSLLKITRIDHGVRCSEDASLVKQLVSERIPLTVCPLSNIKLKVFDRMEQHNIVTLLRQGVCVTINSDDPAYFGGYMTDNFVAVNNAHPMNKAEIAQFTFNAIEASFVSPSEQERLRQVTQKYIALHQE | not soluble |
| MAHHHHHHMALRRLVKMSTTAEECAAVSELFRQYRHPNLVPLTNVLVTDEFVMGSADVIMEYKFITGAKSLNEAFINEGKATEGLLWSFACQMVSLMRAFHETSTPLRGLHWTKILFVPVSSRFYFSGVGFMDVMEPKGSAHQSAALMKHDIQSLGLLLLQLSTGNSNAKPEDFTAQPAKGYSGIFWLLVKACIDGTADVVTLCRALGERMSMEVAHQEGHADRLISQCGKEAHNGRIMRLMIKLNFVLESLHDFPEHSAEANNRYALRLFSQYVFNQVDERHRTRLDWGHVFHSLNKLDCGSEELVQLIGNDESNTILVISYRDLRDTLERAFEQLQPPPNEGDVQPFTVTVGTTSATL | not soluble |
| MSDSDDNAYSDYLGNRRAALQKKRQPVRVCESDDSDDDFDTSGPSPMRKKTRETQLFPDDSDDDECVEVEKETYSQKVRHEIDDVEEAYRRSIYKRETVIHAPVEKNNVISGLLKICEGWDEAAKSGAQPEVEDVKDDSDADESSIAAENFPVTVVILDCESHGNDMKSRHDIFLESTFSEIRRIYATKWGCPVSCVVFSHNGKTIDTYTTPQSLGWRPMTLPHPLIEASKEAGEPAEVFTIENSPDSFTIKVLLASRRKPVQVEAAKDTTIQEILQKVIDAFVEDKEENIPSIESMKVVFDNERIKDVNITCEQLDLEDDDCIEVYF | not soluble |
| MGSDKIHHHHHHMKNLLDLSYEELVTEITNLGLERYRADQILDWVFDKKVNNFDEMTNLSKKHRALLKEHFSISFLKLLDKKVSRIDGTTKFLWELEDGNTIESVMLFHPDRITACISTQVGCPVKCIFCATGMSGFVRNLTTGEIVAQILSMEKEEKKKIGNVVYMGMGEPLLNYENTIKSIRILNHKKMGNIGIRRITISTVGIPDRIIQLAEEGLDVKLALSLHAPTNFKRDQLVPLNKKYSIEEILNAVKIYQRKTGNRVTIEYVLIRGINDEISDAKKLAEILRNMKVFVNLIPVNPTVEGLRRPSRERLLTFKRILLENGIEAEIRREKGTDIEAACGQLRLKRIKSRS | not soluble |
